{"source": "paper PMC7875971", "about": "“Cavin1 intrinsically disordered domains are essential for fuzzy electrostatic interactions and caveola formation” (Nature Communications, 2021)", "proteins": {"B1": {"name": "His-ubiquitin- and GFP-tagged full-length Cavin1 (recombinant GFP-Cavin1) (natural protein, mouse, UniProt O54724 1-392, looked up)", "chain": "MEDVTLHIVERPYSGFPDASSEGPEPTQGEARATEEPSGTGSDELIKSDQVNGVLVLSLLDKIIGAVDQIQLTQAQLEERQAEMEGAVQSIQGELSKLGKAHATTSNTVSKLLEKVRKVSVNVKTVRGSLERQAGQIKKLEVNEAELLRRRNFKVMIYQDEVKLPAKLSVSKSLKESEALPEKEGDELGEGERPEDDTAAIELSSDEAVEVEEVIEESRAERIKRSGLRRVDDFKKAFSKEKMEKTKVRTRENLEKTRLKTKENLEKTRHTLEKRMNKLGTRLVPVERREKLKTSRDKLRKSFTPDHVVYARSKTAVYKVPPFTFHVKKIREGEVEVLKATEMVEVGPEDDEVGAERGEATDLLRGSSPDVHTLLEITEESDAVLVDKSDSD", "notes": "Cavin1, mouse, residues 1-392; also called purified recombinant GFP-Cavin1; source: E. coli Rosetta 2 (DE3), purified (TALON, Superose 6 SEC); not shown: His6-ubiquitin, N-terminal, kept; GFP, C-terminal, kept"}}, "molecular_target": "the molecule itself", "experiment": "fluorescence correlation spectroscopy (FCS); purified ubiquitin- and GFP-tagged proteins at 0.1 µM in 20 mM HepesKOH pH 7.6 with 150 mM NaCl, compared with 500 mM NaCl; diffusivity as read-out of self-association", "data": [{"protein": "B1", "values": [{"measurement": "binding result", "value": "binds"}]}]}
